The test system of the series is Escherichia coli TOP10. In words: shrunken log2 fold change of peptide-encoding DNA abundance (4.5 h post-induction vs induction); higher = less antimicrobial activity (less host growth inhibition). Particulars: time post-induction: 4.5 h; library: site-saturation at positions 5, 18, 19, 20.
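Further: peptides expressed intracellularly from a pBAD plasmid library in pooled LB shake-flask culture, induced with 0.3% L-arabinose, DNA abundance read by NGS, three biological replicates, DESeq2 with apeglm shrinkage.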

Regarding RRIRCRPPRLPRPRPRPLWKPRP, the “shrunken log2 fold change” value came to 0.101.
The result for RRIRGRPPRLPRPRPRPPHTPRP reads 0.985.
Regarding RRIRTRPPRLPRPRPRPTPWPRP, the “shrunken log2 fold change” value turned out to be 0.411.
The result for RRIRIRPPRLPRPRPRPYMCPRP reads -0.318.
In the case of RRIRSRPPRLPRPRPRPRDNPRP it was -0.0866; in that of RRIRNRPPRLPRPRPRPQKSPRP, -0.101; in that of RRIRLRPPRLPRPRPRPFQWPRP, -0.0972.
As for RRIRSRPPRLPRPRPRPMRPPRP, the “shrunken log2 fold change” value turned out to be 0.787.
With RRIRWRPPRLPRPRPRPSSLPRP, the “shrunken log2 fold change” value turned out to be 0.449.
With RRIRDRPPRLPRPRPRPIWSPRP, the “shrunken log2 fold change” value was -0.0288.
The result for RRIRFRPPRLPRPRPRPNCQPRP reads -0.508; that for RRIRYRPPRLPRPRPRPTLLPRP, -0.703; that for RRIRLRPPRLPRPRPRPKMAPRP, 0.259.
In the case of RRIRDRPPRLPRPRPRPIPMPRP, the “shrunken log2 fold change” value is -0.00947.
In the case of RRIRYRPPRLPRPRPRPYITPRP, the “shrunken log2 fold change” value was -0.529.
In the case of RRIRVRPPRLPRPRPRPYMKPRP, the “shrunken log2 fold change” value is -1.04.
With RRIRKRPPRLPRPRPRPMPKPRP, the “shrunken log2 fold change” value was 0.421.
Take RRIRSRPPRLPRPRPRPQGPPRP: the “shrunken log2 fold change” value was -0.0522.
In the case of RRIRARPPRLPRPRPRPNKEPRP, the “shrunken log2 fold change” value is -0.211.
Turning to RRIRNRPPRLPRPRPRPRGKPRP, the “shrunken log2 fold change” value amounted to 0.0233.
As for RRIRQRPPRLPRPRPRPAHHPRP, the “shrunken log2 fold change” value was found to be 0.138.
Take RRIRLRPPRLPRPRPRPSEKPRP: the “shrunken log2 fold change” value was -0.0219.
Turning to RRIRRRPPRLPRPRPRPKLNPRP, the “shrunken log2 fold change” value is 0.101.
In the case of RRIRARPPRLPRPRPRPDYDPRP it was 0.0454.
Take RRIRWRPPRLPRPRPRPMTCPRP: the “shrunken log2 fold change” value was -0.34.
The result for RRIRFRPPRLPRPRPRPMSYPRP reads -0.138; that for RRIRSRPPRLPRPRPRPTPDPRP, 0.441; that for RRIRGRPPRLPRPRPRPIPSPRP, 0.485.
As for RRIRRRPPRLPRPRPRPLAWPRP, the “shrunken log2 fold change” value amounted to 0.226.
Consider RRIRMRPPRLPRPRPRPNKPPRP, for which the “shrunken log2 fold change” value was -0.0387.
In the case of RRIRTRPPRLPRPRPRPFKPPRP it was -0.0194; in that of RRIRERPPRLPRPRPRPHDRPRP, -0.00992.
In the case of RRIRDRPPRLPRPRPRPECHPRP it was 0.479; in that of RRIRRRPPRLPRPRPRPWCEPRP, -0.0981; in that of RRIRRRPPRLPRPRPRPNMDPRP, -0.442.
In the case of RRIRYRPPRLPRPRPRPMMCPRP it was 0.168; in that of RRIRVRPPRLPRPRPRPHSWPRP, 0.0662; in that of RRIRPRPPRLPRPRPRPAMKPRP, 0.162.
In the case of RRIRMRPPRLPRPRPRPSGHPRP, the “shrunken log2 fold change” value was found to be 0.0431.
In the case of RRIRGRPPRLPRPRPRPNTRPRP it was 0.528; in that of RRIRLRPPRLPRPRPRPFARPRP, -0.00783; in that of RRIRTRPPRLPRPRPRPIMYPRP, -0.347.
With RRIRLRPPRLPRPRPRPPHAPRP, the “shrunken log2 fold change” value was 1.2.
With RRIRKRPPRLPRPRPRPNWRPRP, the “shrunken log2 fold change” value turned out to be 1.32.
Take RRIRYRPPRLPRPRPRPPTWPRP: the “shrunken log2 fold change” value is -0.0624.
As to RRIRHRPPRLPRPRPRPHDNPRP, the “shrunken log2 fold change” value is -0.483.
The result for RRIRHRPPRLPRPRPRPTIKPRP reads -0.304.
On to RRIRIRPPRLPRPRPRPECMPRP, for which the “shrunken log2 fold change” value is -0.428.
The result for RRIRGRPPRLPRPRPRPYDEPRP reads 0.0538.
The result for RRIRVRPPRLPRPRPRPVSFPRP reads -0.126; that for RRIRRRPPRLPRPRPRPVMEPRP, 0.305.
In the case of RRIRERPPRLPRPRPRPARGPRP it was 0.644.
Consider RRIRFRPPRLPRPRPRPPKLPRP, for which the “shrunken log2 fold change” value worked out at 0.0996.
In the case of RRIRNRPPRLPRPRPRPQIMPRP it was -0.127; in that of RRIRKRPPRLPRPRPRPFATPRP, 0.45; in that of RRIRQRPPRLPRPRPRPTASPRP, -0.0116.
In the case of RRIRPRPPRLPRPRPRPSGLPRP it was -0.199; in that of RRIRNRPPRLPRPRPRPLFIPRP, -1.03; in that of RRIRVRPPRLPRPRPRPCEQPRP, 0.211.
Regarding RRIRMRPPRLPRPRPRPYMPPRP, the “shrunken log2 fold change” value was -0.312.
Take RRIRNRPPRLPRPRPRPYFQPRP: the “shrunken log2 fold change” value is -0.317.
With RRIRWRPPRLPRPRPRPMDDPRP, the “shrunken log2 fold change” value is -0.172.
The result for RRIRCRPPRLPRPRPRPHKVPRP reads -0.446.
The result for RRIRERPPRLPRPRPRPSNYPRP reads -1.12.
In the case of RRIRVRPPRLPRPRPRPLYRPRP it was -0.047; in that of RRIRSRPPRLPRPRPRPYFFPRP, -0.682; in that of RRIRCRPPRLPRPRPRPDKQPRP, -0.0405.
Consider RRIRTRPPRLPRPRPRPHLTPRP, for which the “shrunken log2 fold change” value came out at 0.101.
The result for RRIRCRPPRLPRPRPRPLQHPRP reads -0.0615; that for RRIRLRPPRLPRPRPRPDYGPRP, -0.23; that for RRIRSRPPRLPRPRPRPNDCPRP, -0.00188.
Regarding RRIRERPPRLPRPRPRPCCFPRP, the “shrunken log2 fold change” value is -0.248.
The result for RRIRVRPPRLPRPRPRPNMKPRP reads -0.524; that for RRIRCRPPRLPRPRPRPFIVPRP, -0.575; that for RRIRFRPPRLPRPRPRPMTTPRP, 0.000405.
Regarding RRIRPRPPRLPRPRPRPANHPRP, the “shrunken log2 fold change” value was -0.0982.
The result for RRIRERPPRLPRPRPRPLSAPRP reads -0.229.
With RRIRPRPPRLPRPRPRPYALPRP, the “shrunken log2 fold change” value was -1.08.
RRIRTRPPRLPRPRPRPYMRPRP: the “shrunken log2 fold change” value is -0.48.
In the case of RRIRRRPPRLPRPRPRPWGDPRP it was -0.0841.
Turning to RRIRSRPPRLPRPRPRPHNNPRP, the “shrunken log2 fold change” value is -0.751.
In the case of RRIRHRPPRLPRPRPRPMWMPRP it was -0.000946.
In the case of RRIRWRPPRLPRPRPRPACDPRP it was 0.788; in that of RRIRARPPRLPRPRPRPILSPRP, 0.376; in that of RRIRVRPPRLPRPRPRPCSWPRP, -0.109.
Consider RRIRYRPPRLPRPRPRPYCQPRP, for which the “shrunken log2 fold change” value is -0.465.
The result for RRIRMRPPRLPRPRPRPAQNPRP reads 1.07; that for RRIRNRPPRLPRPRPRPEEAPRP, 0.612; that for RRIRARPPRLPRPRPRPAKPPRP, 0.127.
In the case of RRIRMRPPRLPRPRPRPCENPRP it was 0.0192.
On to RRIRGRPPRLPRPRPRPSPWPRP, for which the “shrunken log2 fold change” value came to 0.392.
